According to patent publication US20140309175A1:

Target: C1-Esterase (UniProt P09871)
Test: cell-based or functional assay

Sequence of C1-Esterase (P09871 16-688 limits assumed): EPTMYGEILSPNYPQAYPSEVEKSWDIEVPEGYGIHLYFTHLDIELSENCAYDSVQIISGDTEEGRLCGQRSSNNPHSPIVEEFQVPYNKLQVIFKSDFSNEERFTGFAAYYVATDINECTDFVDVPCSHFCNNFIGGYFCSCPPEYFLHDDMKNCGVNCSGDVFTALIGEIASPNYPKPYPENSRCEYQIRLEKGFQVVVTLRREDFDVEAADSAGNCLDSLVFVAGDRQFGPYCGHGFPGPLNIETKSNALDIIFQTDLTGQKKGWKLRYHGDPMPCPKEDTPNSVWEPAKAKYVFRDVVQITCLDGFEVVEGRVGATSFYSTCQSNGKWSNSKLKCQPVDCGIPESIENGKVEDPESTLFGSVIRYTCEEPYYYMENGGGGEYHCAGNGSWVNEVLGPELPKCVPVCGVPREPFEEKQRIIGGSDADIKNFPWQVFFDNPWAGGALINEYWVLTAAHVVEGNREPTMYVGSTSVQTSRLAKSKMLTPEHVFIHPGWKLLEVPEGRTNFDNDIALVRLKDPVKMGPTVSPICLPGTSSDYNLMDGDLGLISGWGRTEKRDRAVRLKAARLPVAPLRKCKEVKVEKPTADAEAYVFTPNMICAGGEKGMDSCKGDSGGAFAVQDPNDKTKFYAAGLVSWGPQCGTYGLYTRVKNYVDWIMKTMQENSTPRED

Row | in vitro C1 inhibitory activity | in vitro C1 inhibitory activity, percent of native C1 inhibitor | Substance
1 | 6.1 U/mg | 86% | Mal-PEG-C1 INH (C1 esterase inhibitor PEGylated with 40 kDa maleimide mPEG) (from UniProt P05155 23-500)
2 | 3.3 U/mg | 47% | Mal-U-PEG-C1 INH (C1 inhibitor PEGylated with branched 40k mPEG-maleimide) (from UniProt P05155 23-500)
